# In the supplement of paper PMC10567573:
# B1: PTPRD (parent)
# chain: ITWFKDFLPVDTSNNNGRIKQLRS
# Variants of: B1
# Assay: protein stability index of a GFP-peptide fusion (GPS, HEK-293T) (PSI 1-6); higher = more stable
# Settings: c terminus: a fixed tail appended
# 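Also: lentivirally expressed fusions sorted by FACS into six bins by GFP to DsRed ratio, PSI derived from sequencing read proportions per bin multiplied by bin number.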
row,Variant,protein stability index
1,ITWFKDFLPVDTSQNNGRIKQLRS,2.02
2,ITWFKDFLPVDTSSNNGRIKQLRS,2.94
3,ITWFKDFLPVDTSVNNGRIKQLRS,1.76
4,ITWFKDFLPVDTSFNNGRIKQLRS,1.5
5,ITWFKDFLPVDTSPNNGRIKQLRS,2.37
6,ITWFKDFLPVDTSKNNGRIKQLRS,2.04
7,ITLFKDFLPVDTSNNNGRIKQLRS,2.31
8,ITAFKDFLPVDTSNNNGRIKQLRS,3.76
9,ITVFKDFLPVDTSNNNGRIKQLRS,2.46
10,ITTFKDFLPVDTSNNNGRIKQLRS,3.3
11,ITRFKDFLPVDTSNNNGRIKQLRS,3.1
12,ITPFKDFLPVDTSNNNGRIKQLRS,3.75
13,ITIFKDFLPVDTSNNNGRIKQLRS,1.93
14,ITNFKDFLPVDTSNNNGRIKQLRS,3.23
15,ITCFKDFLPVDTSNNNGRIKQLRS,2.82
16,ITFFKDFLPVDTSNNNGRIKQLRS,2.25
17,ITQFKDFLPVDTSNNNGRIKQLRS,3.13
18,ITHFKDFLPVDTSNNNGRIKQLRS,3.33
19,ITGFKDFLPVDTSNNNGRIKQLRS,3.03
20,ITWFKDFLPVDTSNNNGRIKKLRS,2.58
21,ITWFKDFLPVDTSNNNGRIKVLRS,1.67
22,ITWFKDFLPVDTSNNNGRIKDLRS,2.17
23,ITWFKDFLPVDTSNNNGRIKSLRS,2.38
24,ITWFKDFLPVDTSNNNGRIKNLRS,1.99

row,Variant,protein stability index
1,ITWFKDFLPVDTSNNNGRIKILRS,2.23
2,ITWFKDFLPVDTSNNNGRIKMLRS,1.45
3,ITWFKDFLPVDTSNNNGRIKELRS,2.2
4,ITWFKDFLPVDTGNNNGRIKQLRS,1.77
5,ITWFKDFLPVDTPNNNGRIKQLRS,2.34
6,ITWFKDFLPVDTNNNNGRIKQLRS,1.68
7,ITWFKDFLPVDTQNNNGRIKQLRS,1.85
8,ITWFKDFLPVDTDNNNGRIKQLRS,2.22
9,ITWFKDFLPVDTYNNNGRIKQLRS,2.05
10,ITWFKDFLPVDTANNNGRIKQLRS,1.62
11,ITWFKDFLPVDTWNNNGRIKQLRS,1.65
12,IDWFKDFLPVDTSNNNGRIKQLRS,1.53
13,IRWFKDFLPVDTSNNNGRIKQLRS,1.59
14,IWWFKDFLPVDTSNNNGRIKQLRS,2.21
15,ITWFKDFLPVDTSNNNGRIKQLDS,2.39
16,ITWFKDFLPVDTSNNNGRIKQLKS,2.55
17,ITWFKDFLPVDTSNNNGRIKQLIS,1.88
18,ITWFKDFLPVDTSNNNGRIKQLAS,2.89
19,ITWFKDFLPVDTSNNNGRIKQLCS,1.43
20,ITWFKDFLPVDTSNNNGRIKQLNS,1.83
21,ITWFKDFLPVDTSNNNGRIPQLRS,1.61
22,ITWFKDFLPVDTSNNNGRIFQLRS,1.98
23,ITWFKDFLPVDTSNNNGRILQLRS,2
24,ITWFKDFLPVDTSNNNGRIRQLRS,1.53

row,Variant,protein stability index
1,ITWFKDFLPVDTSNNNGRIIQLRS,1.31
2,ITWFKDFLPVDTSNNNGRITQLRS,1.95
3,ITWFKDFLPVDTSNNNGRIHQLRS,1.63
4,ITWFKDFLPVDTSNNNGRIDQLRS,2.05
5,ITWFKDFLPVDTSNNNGRIVQLRS,1.68
6,ITWFKDFLPVDTSNNNGRISQLRS,2.72
7,ITWFKDFLNVDTSNNNGRIKQLRS,2.28
8,ITWFKDFLTVDTSNNNGRIKQLRS,1.42
9,ITWFKDFLGVDTSNNNGRIKQLRS,1.72
10,ITWFKDFLAVDTSNNNGRIKQLRS,2
11,ITWFKDFLPVDMSNNNGRIKQLRS,2.32
12,ITWFKDFLPVDGSNNNGRIKQLRS,1.83
13,ITWFKDFLPVDSSNNNGRIKQLRS,1.94
14,ITWFKDFLPVDPSNNNGRIKQLRS,2.03
15,ITWFKDFLPVDESNNNGRIKQLRS,2.06
16,ITWFKDFLPVDYSNNNGRIKQLRS,1.55
17,ITWFKDFLPVDISNNNGRIKQLRS,2.01
18,ITWFKDFLPVDDSNNNGRIKQLRS,1.99
19,ITWFKDFLPVDKSNNNGRIKQLRS,2.01
20,ITWFKDFLPVDFSNNNGRIKQLRS,1.65
21,ITWFKDFLPVDVSNNNGRIKQLRS,2.42
22,ITWRKDFLPVDTSNNNGRIKQLRS,2.49
23,ITWAKDFLPVDTSNNNGRIKQLRS,2.17
24,ITWSKDFLPVDTSNNNGRIKQLRS,1.57

row,Variant,protein stability index
1,ITWEKDFLPVDTSNNNGRIKQLRS,3.97
2,ITWMKDFLPVDTSNNNGRIKQLRS,1.59
3,ITWGKDFLPVDTSNNNGRIKQLRS,3.35
4,ITWNKDFLPVDTSNNNGRIKQLRS,2.57
5,ITWIKDFLPVDTSNNNGRIKQLRS,1.62
6,ITWDKDFLPVDTSNNNGRIKQLRS,3.25
7,ITWFKLFLPVDTSNNNGRIKQLRS,3.08
8,ITWFKQFLPVDTSNNNGRIKQLRS,1.4
9,ITWFKSFLPVDTSNNNGRIKQLRS,2.27
10,ITWFKIFLPVDTSNNNGRIKQLRS,3.07
11,ITWFKHFLPVDTSNNNGRIKQLRS,1.9
12,ITWFKKFLPVDTSNNNGRIKQLRS,1.85
13,ITWFKNFLPVDTSNNNGRIKQLRS,1.94
14,ITWFKCFLPVDTSNNNGRIKQLRS,2.26
15,ITWFKPFLPVDTSNNNGRIKQLRS,1.85
16,ITWFDDFLPVDTSNNNGRIKQLRS,2.44
17,ITWFADFLPVDTSNNNGRIKQLRS,1.98
18,ITWFCDFLPVDTSNNNGRIKQLRS,2.25
19,ITWFWDFLPVDTSNNNGRIKQLRS,1.66
20,ITWFEDFLPVDTSNNNGRIKQLRS,2.91
21,ITWFSDFLPVDTSNNNGRIKQLRS,2.37
22,ITWFIDFLPVDTSNNNGRIKQLRS,2.19
23,ITWFQDFLPVDTSNNNGRIKQLRS,2.07
24,ITWFKDELPVDTSNNNGRIKQLRS,2.45

row,Variant,protein stability index
1,ITWFKDTLPVDTSNNNGRIKQLRS,2.38
2,ITWFKDILPVDTSNNNGRIKQLRS,2.26
3,ITWFKDFLPVITSNNNGRIKQLRS,2.44
4,ITWFKDFLPVATSNNNGRIKQLRS,1.9
5,ITWFKDFLPVVTSNNNGRIKQLRS,1.86
6,ITWFKDFLPVDTSNSNGRIKQLRS,1.67
7,ITWFKDFLPVDTSNINGRIKQLRS,1.58
8,ITWFKDFLPVDTSNKNGRIKQLRS,2.54
9,ITWFKDFLPVDTSNDNGRIKQLRS,1.74
10,ITWFKDFLPVDTSNFNGRIKQLRS,1.6
11,ITWFKDFLPVDTSNGNGRIKQLRS,1.72
12,ITWFKDFLPVDTSNHNGRIKQLRS,1.48
13,ITWFKDFLPVDTSNTNGRIKQLRS,3.44
14,ITWFKDFLPVDTSNNNGRIKQLRF,1.69
15,ITWFKDFLPVDTSNNNGRIKQLRI,1.97
16,ITWFKDFLPVDTSNNNGRIKQLRC,2.32
17,ITWFKDFLPVDTSNNNGRIKQLRM,1.54
18,ITWFKDFLPVDTSNNNGRIKQLRD,1.9
19,ITWFKDFLPVDTSNNNGRIKQLRH,1.74
20,ITWFKDFLPVDTSNNNGRIKQLRQ,1.78
21,ITWFKDFLPVDTSNNNGRIKQLRK,2.15
22,ITWFKDFLPVDTSNNNGRIKQLRL,1.41
23,ITWFKDFLPVDTSNNNGRIKQLRP,1.34
24,ITWFKDFLPVDTSNNNGRIKQLRN,1.88

row,Variant,protein stability index
1,ITWFKDFLPVDTSNNIGRIKQLRS,2.32
2,ITWFKDFLPVDTSNNQGRIKQLRS,2.26
3,ITWFKDFLPVDTSNNKGRIKQLRS,1.98
4,ITWFKDFLPVDTSNNRGRIKQLRS,1.65
5,ITWFKDFLPVDTSNNVGRIKQLRS,2.62
6,ITWFKDFLPVDTSNNYGRIKQLRS,1.71
7,ITWFKDFLPVDTSNNSGRIKQLRS,1.98
8,ITWFKDFLPVDTSNNMGRIKQLRS,1.43
9,ITWFKDFLPVDTSNNHGRIKQLRS,1.58
10,ITWFKDFLPVDTSNNAGRIKQLRS,1.78
11,ITWFKDFLPVDTSNNNGRIKQYRS,2.73
12,ITWFKDFLPVDTSNNNGRIKQGRS,1.84
13,ITWFKDFLPVDTSNNNGRIKQCRS,1.61
14,ITWFKDFLPVDTSNNNGRIKQVRS,1.62
15,ITWFKDFLPVDTSNNNGRIKQMRS,1.88
16,ITWFKDFLPVDTSNNNGRIKQKRS,1.77
17,ITWFKDFLPVDTSNNNGRIKQQRS,1.62
18,ITWFKDFLPVDTSNNNGRIKQHRS,2.28
19,ITWFKDFLPVDTSNNNGRIKQNRS,2.01
20,ITWFKDFLPQDTSNNNGRIKQLRS,2.17
21,ITWFKDFLPKDTSNNNGRIKQLRS,2.07
22,ITWFKDFLPIDTSNNNGRIKQLRS,2.49
23,ITWFKDFLPCDTSNNNGRIKQLRS,2.05
24,ITWFKDFLPLDTSNNNGRIKQLRS,1.95

row,Variant,protein stability index
1,ITWFKDFLPDDTSNNNGRIKQLRS,2.39
2,ITWFKDFLPEDTSNNNGRIKQLRS,2.23
3,ITWFKDFLPGDTSNNNGRIKQLRS,2.28
4,ITWFKDFLPVDTSNNNGRLKQLRS,2.07
5,ITWFKDFLPVDTSNNNGRRKQLRS,1.84
6,ITWFKDFLPVDTSNNNGRHKQLRS,1.53
7,ITWFKDFLPVDTSNNNGRPKQLRS,1.69
8,ITWFKDFLPVDTSNNNGRFKQLRS,2.25
9,ITWFKDFLPVDTSNNNGRCKQLRS,1.69
10,ITWFKDFLPVDTSNNNGRNKQLRS,1.95
11,ITWFKDFLPVDTSNNNGRSKQLRS,1.54
12,MTWFKDFLPVDTSNNNGRIKQLRS,2.62
13,WTWFKDFLPVDTSNNNGRIKQLRS,2.17
14,ETWFKDFLPVDTSNNNGRIKQLRS,3.66
15,TTWFKDFLPVDTSNNNGRIKQLRS,3.02
16,FTWFKDFLPVDTSNNNGRIKQLRS,2.03
17,STWFKDFLPVDTSNNNGRIKQLRS,3.17
18,YTWFKDFLPVDTSNNNGRIKQLRS,1.92
19,NTWFKDFLPVDTSNNNGRIKQLRS,3.69
20,ATWFKDFLPVDTSNNNGRIKQLRS,3.26
21,PTWFKDFLPVDTSNNNGRIKQLRS,3.97
22,ITWFKDFYPVDTSNNNGRIKQLRS,1.64
23,ITWFKDFMPVDTSNNNGRIKQLRS,1.49
24,ITWFKDFGPVDTSNNNGRIKQLRS,2

row,Variant,protein stability index
1,ITWFKDFIPVDTSNNNGRIKQLRS,2.32
2,ITWFKDFVPVDTSNNNGRIKQLRS,1.77
3,ITWFKDFCPVDTSNNNGRIKQLRS,1.81
4,ITWFKDFRPVDTSNNNGRIKQLRS,2.41
5,ITWFKDFLPVDTSNNNGWIKQLRS,1.62
6,ITWFKDFLPVDTSNNNGVIKQLRS,2.33
7,ITWFKDFLPVDTSNNNGYIKQLRS,2.1
8,ITWFKDFLPVDTSNNNGGIKQLRS,2.73
9,ITWFKDFLPVDTSNNNGTIKQLRS,1.93
10,ITWFKDFLPVDTSNNNGKIKQLRS,1.68
11,ITWFKDFLPVDTSNNNGPIKQLRS,2.08
12,ITWFKDFLPVDTSNNNGHIKQLRS,2.77
13,ITWFKDFLPVDTSNNNGNIKQLRS,1.97
14,ITWFKDFLPVDTSNNNGEIKQLRS,1.87
15,ITWFKDFLPVDTSNNNLRIKQLRS,1.73
16,ITWFKDFLPVDTSNNNPRIKQLRS,1.73
17,ITWFKDFLPVDTSNNNARIKQLRS,1.58
18,ITWFKDFLPVDTSNNNTRIKQLRS,2.25
19,ITWFKDFLPVDTSNNNSRIKQLRS,2.33
20,ITWFKDFLPVDTSNNNFRIKQLRS,2.33
